From patent US6613211B1, “Capillary electrokinesis based cellular assays” (Aclara BioSciences, Inc., priority 1999, dated 2003)
Values joined by “and” are separate entries in the source; they are usually repeats but may differ in a detail not shown here. Equal entries are not always repeated. Where no end group is shown, it is not given here. The star is where a group is joined. For = O=C*

Legend:
[1] = biological target: T1, fMLP receptor (Homo sapiens, UniProt P21462); assay: Capillary cytometric competition of labeled fMLPK binding to cells with a high level of fMLP receptor (syringe pump)
T1 sequence (P21462 1-350): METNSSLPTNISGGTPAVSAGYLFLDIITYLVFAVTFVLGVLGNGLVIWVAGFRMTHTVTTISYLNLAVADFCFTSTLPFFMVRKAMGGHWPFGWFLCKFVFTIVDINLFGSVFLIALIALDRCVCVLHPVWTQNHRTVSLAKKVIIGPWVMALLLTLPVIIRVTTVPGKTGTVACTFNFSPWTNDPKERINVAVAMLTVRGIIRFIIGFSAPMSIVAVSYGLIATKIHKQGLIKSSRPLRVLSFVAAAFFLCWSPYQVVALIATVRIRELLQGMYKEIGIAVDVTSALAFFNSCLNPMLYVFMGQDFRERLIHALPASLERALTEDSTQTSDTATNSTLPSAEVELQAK
Protocol: In the next study, pumping means was employed to move cells through a capillary. […] The buffer solution was 140 mM NaCl, 1 mM KH2PO4, 5 mM Na2HPO4, 1.5 mM CaCl2, 0.3 mM MgSO4, 1 mM MgCl2, 0.2% BSA. The cell concentration in the reservoir was 10^6/ml and the receptor concentration was 413 pM. […] […] The device was comprised of a reservoir having a volume of 500 μl into which was introduced a capillary having an I.D. of 100 μm. In place of an electroosmotic pump, a syringe pump operating at 500 μl/min applied to the other end of the capillary was employed. The reading was taken at about 100 mm from the capillary inlet.

[2] = biological target: T1, fMLP receptor; assay: Calibration study, Cy5-fMLPK fluorescence with cells read with P/ACE; type: binding; conditions: solution 3: 25 μl cells, 25 μl 12 nM Cy5-fMLPK, 0.25 μl 1 mM fMLPK
Protocol: (§1) In the next study, pumping means was employed to move cells through a capillary. The cells were cultured cells having a high level of the fMLP receptor on the surface. The buffer solution was 140 mM NaCl, 1 mM KH2PO4, 5 mM Na2HPO4, 1.5 mM CaCl2, 0.3 mM MgSO4, 1 mM MgCl2, 0.2% BSA. The cell concentration in the reservoir was 10^6/ml and the receptor concentration was 413 pM. […] The labeled ligand was 4 nM, while the ligand concentration was varied from 2.5 nM to 250 nM. The device was comprised of a reservoir having a volume of 500 μl into which was introduced a capillary having an I.D. of 100 μm. In place of an electroosmotic pump, a syringe pump operating at 500 μl/min applied to the other end of the capillary was employed. The reading was taken at about 100 mm from the capillary inlet. The results are shown in FIGS. 4 and 5, where TR stands for tracer, RC refers to receptor and TRC refers to both Tracer and Receptor.
In and initial study for calibration, four solutions were prepared: (1) 25 μl buffer and 25 μl Cy5-fMLPK; (2) 25 μl cells and 25 μl 12 nM Cy5-fMLPK; (3) 25 μl cells and 25 μl 12 nM Cy5-fMLPK and 0.25 μl 1 mM fMLPK; and (4) 25 μl cells and 25 μl buffer. The flurescence was read with the aid of a P/ACE, which covers a volume of 50 μl.

[3] = biological target: T1, fMLP receptor; assay: Cy-5-fMLPK fluorescence with cells read with Hitachi fluorimeter; type: binding; conditions: solution 3: 125 μl Cy-5-fMLPK, 125 μl cells, 1 μl 1 mM fMLPK
Protocol: as §1
In the next study four solutions were prepared using the Cy-5 conjugate of fMLPK. The compositions are as follows: (1) 125 μl buffer and 125 μl Cy-5-fMLPK; (2) 125 μl Cy5-fMLPK and 125 μl cells; (3) 125 μl Cy-5-fMLPK, 125 μl cells and 1 μl 1 mM fMLPK; and 125 μl buffer and 125 μl cells. An Hitachi fluorimeter was used to read scence which covers 220 μl. For buffer, the readings were 34,33.

total peak height ([1]; fMLPK 2.5 nM): 19
total peak height ([1]; fMLPK 250 nM): < 1
total peak height ([1]; fMLPK 2.5 μM): 0
fluorescence, column A [2]: 1,97 and 1.99
fluorescence, column B [2]: 1.98 and 1.97
fluorescence, column C [2]: 2.06, 2.06
fluorescence, column D [2]: 1.95 and 1.99
fluorescence, column A [3]: 844
fluorescence, column C [3]: 826
fluorescence, column D [3]: 812
Substance: N-formyl-Met-Leu-Phe-Lys (For-MLFK) [fMLPK]
